Target: T1, GST-Lyn SH3 domain (human, UniProt P07948 63-123)
T1 construct: SH3 domain of human Lyn tyrosine kinase; Plasmid derived from pGEX-2T; also called GST fusion to the SH3 domain of Lyn
Assay: ELISA; competition ELBA: GST-Lyn SH3 domain coated at 5 μg/mL, peptide at 0.1 μM to 40 μM added along with TA8-alkaline phosphatase fusion for 1 h
Conditions: both partners purified

T1 sequence (P07948 63-123): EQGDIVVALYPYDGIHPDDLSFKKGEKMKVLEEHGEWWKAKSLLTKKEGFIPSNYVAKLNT

Question: Does GMPTPPLPPRPANLGERQA bind?
Answer: Result: binds

Reference: article PMC4701441, “Directed Evolution of a Highly Specific FN3 Monobody to the SH3 Domain of Human Lyn Tyrosine Kinase” (PLoS ONE, 2016)
